We go through two substances from patent EP1336618A1.

This experiment concerns the target human C3b (human) (UniProt P01024). The experiment in a line: cell-based or functional assay.

Where “and” joins values, the source holds several entries; their conditions need not be identical. Identical values can stand only once.

Chain of UniProt P01024 (P01024 749-1663 limits assumed, chain 1 of 2): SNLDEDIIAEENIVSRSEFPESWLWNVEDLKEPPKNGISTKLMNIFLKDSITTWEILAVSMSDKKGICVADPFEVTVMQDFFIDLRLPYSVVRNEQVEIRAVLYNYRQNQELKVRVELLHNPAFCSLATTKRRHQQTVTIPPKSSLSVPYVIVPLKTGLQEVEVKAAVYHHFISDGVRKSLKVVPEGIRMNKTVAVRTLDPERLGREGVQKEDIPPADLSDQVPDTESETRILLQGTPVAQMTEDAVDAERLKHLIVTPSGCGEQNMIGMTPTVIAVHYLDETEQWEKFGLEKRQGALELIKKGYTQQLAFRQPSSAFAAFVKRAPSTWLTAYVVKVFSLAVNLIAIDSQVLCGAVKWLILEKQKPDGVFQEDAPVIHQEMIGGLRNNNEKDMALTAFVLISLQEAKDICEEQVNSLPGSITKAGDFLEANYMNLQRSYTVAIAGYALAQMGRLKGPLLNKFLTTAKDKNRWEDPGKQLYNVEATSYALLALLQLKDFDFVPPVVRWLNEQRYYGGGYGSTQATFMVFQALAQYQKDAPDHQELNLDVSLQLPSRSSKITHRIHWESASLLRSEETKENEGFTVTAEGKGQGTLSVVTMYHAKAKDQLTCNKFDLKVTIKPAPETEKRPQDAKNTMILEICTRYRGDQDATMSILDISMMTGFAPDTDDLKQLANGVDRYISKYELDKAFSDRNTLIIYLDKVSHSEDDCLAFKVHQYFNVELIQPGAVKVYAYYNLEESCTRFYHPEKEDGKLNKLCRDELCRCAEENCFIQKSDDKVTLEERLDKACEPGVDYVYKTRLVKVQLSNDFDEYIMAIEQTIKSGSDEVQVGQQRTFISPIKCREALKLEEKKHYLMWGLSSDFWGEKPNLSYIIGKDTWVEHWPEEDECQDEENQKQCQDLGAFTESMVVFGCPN
Chain of UniProt P01024 (P01024 23-667 limits assumed, chain 2 of 2): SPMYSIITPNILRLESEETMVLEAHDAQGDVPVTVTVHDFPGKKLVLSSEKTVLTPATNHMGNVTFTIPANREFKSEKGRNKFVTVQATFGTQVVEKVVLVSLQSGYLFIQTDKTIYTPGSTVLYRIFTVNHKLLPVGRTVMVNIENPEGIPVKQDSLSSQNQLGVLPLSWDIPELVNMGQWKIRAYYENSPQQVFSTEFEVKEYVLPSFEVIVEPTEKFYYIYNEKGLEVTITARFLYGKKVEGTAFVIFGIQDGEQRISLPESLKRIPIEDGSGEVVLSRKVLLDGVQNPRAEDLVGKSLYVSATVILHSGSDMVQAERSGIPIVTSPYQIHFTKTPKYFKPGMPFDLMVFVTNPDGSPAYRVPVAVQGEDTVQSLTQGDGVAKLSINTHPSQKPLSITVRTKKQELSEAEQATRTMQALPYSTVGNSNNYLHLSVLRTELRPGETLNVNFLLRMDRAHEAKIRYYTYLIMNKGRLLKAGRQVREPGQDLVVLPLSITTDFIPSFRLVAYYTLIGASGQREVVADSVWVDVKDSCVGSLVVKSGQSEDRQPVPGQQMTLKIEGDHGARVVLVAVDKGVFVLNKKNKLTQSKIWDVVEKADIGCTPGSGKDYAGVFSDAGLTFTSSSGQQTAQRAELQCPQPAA

On to “recombinant fragment pFH SCR1-4 (porcine complement regulator factor H, short consensus repeats 1-4)”, for which the difference in half-maximum activity in the cleavage of human C3b against human FHL-1 (dilution step) is under 1; the half-maximum cleavage activity of hC3b (cofactor dilution, start 0.7 µg in 5 µl) (fold dilution (1:x)) is 8 and 16. Take “human FHL-1 (factor H like protein 1), recombinant (from UniProt P08603 19-449)”: the half-maximum cleavage activity of hC3b (cofactor dilution, start 0.7 µg in 5 µl) (fold dilution (1:x)) was 16 and 8.
